Values quoted from earlier work, collected in publication PMC8136485, “Were Ancestral Proteins Less Specific?” (Molecular Biology and Evolution, 2021).
pKd: −log10 of the molar value.

Target: NCX1 peptide (Homo sapiens) (UniProt P32418)
Settings: cited from earlier work

hA5 (S100A5), sequence (P33763 whole entry): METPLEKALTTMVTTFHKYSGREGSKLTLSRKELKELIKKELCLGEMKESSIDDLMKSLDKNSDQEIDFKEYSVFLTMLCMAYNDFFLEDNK
NCX1 peptide (Homo sapiens), sequence (P32418 36-973): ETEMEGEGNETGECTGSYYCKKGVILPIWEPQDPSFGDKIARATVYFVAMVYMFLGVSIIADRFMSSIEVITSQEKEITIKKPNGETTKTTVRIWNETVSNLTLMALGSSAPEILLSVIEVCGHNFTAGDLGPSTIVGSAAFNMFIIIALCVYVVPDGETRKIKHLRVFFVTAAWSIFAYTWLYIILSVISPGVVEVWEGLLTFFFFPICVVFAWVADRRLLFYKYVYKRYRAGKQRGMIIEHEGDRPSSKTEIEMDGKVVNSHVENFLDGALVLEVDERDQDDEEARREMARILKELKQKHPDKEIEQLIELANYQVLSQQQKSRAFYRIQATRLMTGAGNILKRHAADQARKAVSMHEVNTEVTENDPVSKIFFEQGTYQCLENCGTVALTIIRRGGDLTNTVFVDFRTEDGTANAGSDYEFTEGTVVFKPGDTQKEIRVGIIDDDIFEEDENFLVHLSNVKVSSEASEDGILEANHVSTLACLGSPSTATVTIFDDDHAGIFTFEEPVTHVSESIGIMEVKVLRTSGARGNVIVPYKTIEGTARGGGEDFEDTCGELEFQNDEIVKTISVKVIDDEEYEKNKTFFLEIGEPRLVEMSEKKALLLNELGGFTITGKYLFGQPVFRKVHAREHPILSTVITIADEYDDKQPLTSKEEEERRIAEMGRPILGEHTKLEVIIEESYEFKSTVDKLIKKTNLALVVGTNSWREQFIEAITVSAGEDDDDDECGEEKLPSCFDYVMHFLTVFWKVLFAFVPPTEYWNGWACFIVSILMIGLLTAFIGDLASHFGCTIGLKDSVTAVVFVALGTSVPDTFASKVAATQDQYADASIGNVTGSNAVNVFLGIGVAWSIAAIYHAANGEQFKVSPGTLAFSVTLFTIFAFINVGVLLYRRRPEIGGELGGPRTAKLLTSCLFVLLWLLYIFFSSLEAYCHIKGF

In the case of hA5 (S100A5) (from UniProt P33763), the pKd is given as 4.74.
